The source of these data is US20220204611A1 (Amgen, published 2022).

Experiment [1] has as its target T1, recombinant soluble human TREM2 protein (human TREM2 ECD-FlagHis) (human, UniProt Q9NZC2 19-174).
T1 sequence: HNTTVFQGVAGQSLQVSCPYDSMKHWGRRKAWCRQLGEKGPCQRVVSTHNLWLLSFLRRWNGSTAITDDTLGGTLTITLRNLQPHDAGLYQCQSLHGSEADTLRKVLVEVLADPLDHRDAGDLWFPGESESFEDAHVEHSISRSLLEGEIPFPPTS
As to the kind of experiment: Octet BLI binning; competitor: load Ab 26F2. How it is done: (§1) Each of sixteen different anti-TREM2 antibodies produced from hybridomas were quantitated and loaded onto one of the anti-human Fc sensors at 5 μg/mL for 2 minutes (“Load Antibody”). The sensor was then blocked with 100 μg/mL of an irrelevant human IgG2 antibody for 5 minutes. […] Next, each of the sixteen different anti-TREM2 antibodies (“Sandwich Antibody”) was added to the sensor at 5 μg/mL and allowed to bind for 5 minutes. All assay buffers contained 10 mM Tris (pH 7.6), 0.1% Triton X-100, 150 mM NaCl, 1 mM CaCl₂, and 1 mg/mL BSA. The assay was conducted at 25° C. Experimental kinetic results were fit to a 1:1 binding model.
(§2) However, if addition of the sandwich antibody produces a binding event, then the sandwich antibody binds to a different epitope on human TREM2 than the load antibody and the two antibodies are categorized into different epitope bins.

The target in experiment [2] is T1, recombinant soluble human TREM2 protein …. As to the kind of experiment: Octet BLI binning; competitor: load Ab 5E3. As to the method: as §1, §2
Background: In BLI a coated tip is dipped into the sample, and binding shifts an interference pattern.

The target is the same in experiment [3]. As to the kind of experiment: Octet BLI binning; competitor: load Ab 6E7. As to the method: as §1, §2
For experiment [4] the target is unchanged. As to the kind of experiment: Octet BLI binning; competitor: load Ab 4C5. How it is done: as §1, §2
The target is the same in experiment [5]. As to the kind of experiment: Octet BLI binning; competitor: load Ab 25F12. How it is done:
as §1, §2

The target in experiment [6] is T2, human TREM2 on cells (human, UniProt Q9NZC2 19-230).
T2 sequence: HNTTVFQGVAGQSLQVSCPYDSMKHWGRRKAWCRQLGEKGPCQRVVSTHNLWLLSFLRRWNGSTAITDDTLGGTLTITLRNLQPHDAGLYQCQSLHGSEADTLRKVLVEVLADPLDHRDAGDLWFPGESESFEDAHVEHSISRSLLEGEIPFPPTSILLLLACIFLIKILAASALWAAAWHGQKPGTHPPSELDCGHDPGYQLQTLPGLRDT
As to the kind of experiment: cell-based or functional assay.

Experiment [7] deals with T1, recombinant soluble human TREM2 protein …. In words: Octet BLI binning; competitor: load Ab 16B8. How it is done:
as §1, §2

For experiment [8] the target is unchanged. In words: Octet BLI binning; competitor: load Ab 26A10. As to the method:
as §1, §2

Experiment [9] shares this target. As to the kind of experiment: Octet BLI binning; competitor: load Ab 10E3. As to the method:
as §1, §2

Experiment [10] has the same target. In words: Octet BLI binning; competitor: load Ab 33B12. As to the method:
as §1, §2

For experiment [11], the target named is T3, soluble human TREM2 protein (TREM2 ECD-huIgG1 Fc fusion protein) (human, UniProt Q9NZC2 19-174, biotinylated).
T3 construct: also called biotinylated soluble human TREM2 protein
T3 sequence: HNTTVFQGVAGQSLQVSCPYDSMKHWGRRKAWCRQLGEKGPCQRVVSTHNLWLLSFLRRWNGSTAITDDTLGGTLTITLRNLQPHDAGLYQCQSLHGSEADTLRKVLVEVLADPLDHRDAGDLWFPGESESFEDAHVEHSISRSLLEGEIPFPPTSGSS
As to the kind of experiment: ELISA, hybridoma supernatant on captured biotinylated TREM2 ECD-Fc. As to the method:
Exhausted hybridoma supernatants were tested for binding to human TREM2 by ELISA. Briefly, neutravidin plates were generated by incubating a 384 well Corning Assay Plate 3702 with neutravidin (Thermo 3100B) at 10 μg/mL (40 μL/well) in 1× PBS at 4° C. overnight. The plates were washed with 1× PBS using a Biotek plate washer and then blocked with 1% milk/1× PBS (90 μL/well) at room temperature (RT) for 30 minutes. The plates were then washed again with 1× PBS using the plate washer. […] The plates were then incubated at RT for 1 hour to immobilize the TREM2 protein to the wells of the plates. Following the incubation, the plates were again washed with 1× PBS using the plate washer. 10 μL of each hybridoma supernatant to be tested and 40 μL of 1% milk/1× PBS (1:5 dilution) were added to each well of the plates and incubated at RT for 1 hour. Again, the plates were washed with 1× PBS using the plate washer. […] After the plates were washed with 1× PBS using the plate washer, 40 μL/well of TMB substrate (Neogen, lot #150114) was added to the plates and the plates were incubated at RT for 30 minutes. The reaction was quenched with 1N hydrochloric acid (40 uL/well) following the incubation period. OD readings at 450 nm were obtained with a plate reader.
(ELISA stands for enzyme-linked immunosorbent assay.)

The target of experiment [12] is T1, recombinant soluble human TREM2 protein …. As to the kind of experiment: Octet BLI binning; competitor: load Ab 13E7. As to the method: as §1, §2
Experiment [13] has the same target. As to the kind of experiment: Octet BLI binning; competitor: load Ab 4G10. As to the method: as §1, §2
For experiment [14] the target is unchanged. In words: Octet BLI binning; competitor: load Ab 26C10. How it is done: as §1, §2
Experiment [15] shares this target. As to the kind of experiment: Octet BLI binning; competitor: load Ab 24A10. How it is done:
as §1, §2

Experiment [16] has the same target. As to the kind of experiment: Octet BLI binning; competitor: load Ab 24G6. As to the method: as §1, §2
For experiment [17] the target is unchanged. As to the kind of experiment: Octet BLI binning; competitor: load Ab 24F4. As to the method:
as §1, §2

For experiment [18] the target is unchanged. As to the kind of experiment: Octet BLI binning; competitor: load Ab 32E3. How it is done: as §1, §2
For experiment [19], the target named is T2, human TREM2 on cells. As to the kind of experiment: cell-based or functional assay. This is another data set of the same source.

B1: 25F12 (antibody, human IgG2, V domains shown)
VH: QVQLQQWGAGLLKPSETLSLTCAVYGGSFSSYYWSWIRQPPGKGLEWIGEINHSGNTNYNPSLKSRVTISVDTSKNQFSLKLSSVTAADTAVYYCAREGYYDILTGYHDAFDIWDQGTMVTVFS
VL: not shown
notes: human IgG2 from hybridoma
On to B1, for which the sandwich binding signal in [1] was 0.33; in [2], 0.335; in [3], 0.213; in [4] it was 0.154; in [5], 0.011; in experiment [7] it was 0.252. Also, the sandwich binding signal is 0.347 in [8]; 0.089 in experiment [9]; 0.275 in experiment [10]; 0.104 in experiment [12]; 0.142 in experiment [13]; 0.327 in experiment [14]. The sandwich binding signal was 0.34 in experiment [15], 0.284 in experiment [16], 0.18 in [17] and 0.236 in experiment [18]. Further, the “Emax (% maximum activation compared to RnD antibody)” value with human TREM2 on cells [6] turned out to be 122%. The “pSyk EC50, differentiated THP-1 cells” value in the experiment with human TREM2 on cells [6] is 1.05 nM. Besides, the “OD 450” value in experiment [11] was 1.29 OD450. In addition, the “pSyk EC50” value in the experiment with human TREM2 on cells [19] was found to be 2.6 nM.

B2: 24A10 (antibody, human IgG2, V domains shown)
VH: EVQVLESGGGLVQPGGSLRLSCAASGFTFSNYAMSWVRQAPGKGLEWVSAISGSGGSTYYADSVKGRFTISRDNSKNTLYLQMNSLRAEDTAVYYCAKGGWELFYWGQGTLVTVSS
VL: not shown
notes: human IgG2 from hybridoma
As for B2, the sandwich binding signal in experiment [1] was found to be 0.544; in [2] it was 0.53; in experiment [3], 0.616; in experiment [5] it was 0.509; in [7], 0.481; in experiment [8] it was 0.596. Further, the sandwich binding signal in experiment [9] was 0.347; in [10], 0.439; in experiment [12], 0.375; in [14], 0.605; in [15], 0.023; in [16], -0.031. Further, the sandwich binding signal is 0.585 in [17] and 0.461 in [18]. The “OD 450” value in [11] is 2.75 OD450. Besides, the “pSyk EC50” value in the experiment with human TREM2 on cells [19] was 32.9 nM.

B3: 26A10 (antibody, V domains shown)
VH: EVQLVESGGALVQRGGSLRLSCAASRFTFSSFGMSWVRQAPGKGLEWVSYISSSSFTIYYADSVKGRFTISRDNAKNSFYLQMNSLRDEDTAVYYCAREGGLTMVRGVSSYGLDVWGQGTTVTVSS
VL: not shown
notes: human IgG2 from hybridoma
As for B3, the sandwich binding signal is -0.016 in [1]; -0.027 in experiment [2]; 0.491 in experiment [3]; 0.343 in experiment [5]; -0.018 in experiment [7]; -0.001 in experiment [8]. Further, the sandwich binding signal in experiment [9] is 0.259; in [10], -0.02; in [12], 0.272; in experiment [14], -0.033; in [15], 0.454; in [16], 0.354. In addition, the sandwich binding signal in experiment [17] was found to be 0.449; in [18], 0.362. In addition, the “OD 450” value in experiment [11] came to 1.16 OD450. Moreover, in the experiment with human TREM2 on cells [19], the “pSyk EC50” value was 1.3 nM.

B4: 26F2 (antibody, V domains shown)
VH: EVQLVESGGALVQPGGSLRLSCAASGFTFSSFGMSWVRQAPGKGLEWISYISSSSFTIYYADSVKGRFTISRDNAKNSFYLQMNSLRDEDTAVYFCAREGGITMVRGVSSYGMDVWGQGTTVTVSS
VL: not shown
notes: human IgG2 from hybridoma
As for B4, the sandwich binding signal is -0.008 in experiment [1]; -0.014 in experiment [2]; 0.523 in [3]; 0.368 in [4]; 0.366 in experiment [5]; -0.003 in experiment [7]. For the same molecule, the sandwich binding signal in experiment [8] is 0.009; in experiment [9], 0.275; in experiment [10], -0.009; in experiment [12] it was 0.294; in experiment [13], 0.334; in experiment [14], -0.003. Further, the sandwich binding signal in experiment [15] came to 0.49; in experiment [16], 0.399; in [17], 0.477; in [18], 0.411. The “Emax (% maximum activation compared to RnD antibody)” value with human TREM2 on cells [6] came out at 207%. Further, in the experiment with human TREM2 on cells [6], the “pSyk EC50, differentiated THP-1 cells” value is 0.0778 nM. Further, in [11], the “OD 450” value worked out at 1.48 OD450. Also, the “pSyk EC50” value in the experiment with human TREM2 on cells [19] was found to be 1.4 nM.
